Measured values as given in patent US20260265368A1 (CARSGEN LIFE SCIENCES, published 2026).

T1: Human CLDN6 (on 293T-CLDN6 cells) (human, UniProt P56747 1-220)
T1 construct: In the killing assay it was also endogenous on OVCAR3 and OV90 cells; also called Claudin 6
T1 sequence: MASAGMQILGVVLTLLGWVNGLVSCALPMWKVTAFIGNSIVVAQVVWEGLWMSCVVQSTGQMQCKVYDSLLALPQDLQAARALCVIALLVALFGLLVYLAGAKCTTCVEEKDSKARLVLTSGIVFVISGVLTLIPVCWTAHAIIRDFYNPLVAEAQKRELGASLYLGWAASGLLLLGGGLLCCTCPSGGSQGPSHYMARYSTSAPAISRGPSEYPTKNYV

T2: Human CLDN9 (on 293T-CLDN9 cells) (human, UniProt O95484 1-217)
T2 construct: also called Claudin 9
T2 sequence: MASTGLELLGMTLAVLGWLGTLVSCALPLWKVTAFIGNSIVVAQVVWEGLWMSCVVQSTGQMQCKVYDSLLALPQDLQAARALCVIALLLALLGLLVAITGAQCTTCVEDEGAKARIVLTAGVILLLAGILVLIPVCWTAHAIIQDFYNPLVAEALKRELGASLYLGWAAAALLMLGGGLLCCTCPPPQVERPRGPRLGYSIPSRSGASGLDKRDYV

T3: Human CLDN4 (on 293T-CLDN4 cells) (human, UniProt O14493 1-209)
T3 construct: also called Claudin 4
T3 sequence: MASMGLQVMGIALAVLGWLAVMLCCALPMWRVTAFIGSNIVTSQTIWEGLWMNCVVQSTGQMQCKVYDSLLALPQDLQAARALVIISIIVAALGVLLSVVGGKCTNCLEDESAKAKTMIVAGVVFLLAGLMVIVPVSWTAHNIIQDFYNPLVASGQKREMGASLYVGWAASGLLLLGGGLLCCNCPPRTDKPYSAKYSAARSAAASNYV


How the values were obtained:
[1] = molecular target: T1, Human CLDN6 (on 293T-CLDN6 cells); assay: flow cytometry EC50 on 293T-CLDN6 cells, against antibody H1
Protocol: (§1) The heavy chain variable region of antibody P1 from Example 3 was combined with the light chain variable regions of antibodies P2 and P3 by using molecular cloning, respectively, so as to obtain antibodies M1 and M2. After being prokaryotically expressed and puried, purified single chain antibodies (scFv) were obtained. […] Data were analyzed using FlowJo to calculate mean fluorescence intensity (MFI).

[2] = molecular target: T1, Human CLDN6 (on 293T-CLDN6 cells); assay: flow cytometry on 293T-CLDN6 cells
[3] = molecular target: T2, Human CLDN9 (on 293T-CLDN9 cells); assay: flow cytometry (MFI) on 293T-CLDN9 cells
Protocol: as §1

[4] = molecular target: T3, Human CLDN4 (on 293T-CLDN4 cells); assay: flow cytometry (MFI) on 293T-CLDN4 cells
Protocol: as §1

[5] = molecular target: T3, Human CLDN4 (on 293T-CLDN4 cells); assay: flow cytometry on 293T-CLDN4 cells
Protocol: (§2) After centrifugation, the supernatant was discarded, and the cells were washed with PBS and incubated with Goat-anti-Mouse FITC at 4° C. After centrifugation, the supernatant was discarded, and the cells were washed and detected by flow cytometry. FlowJo v.X.0.7 was used for statistics and GraphPad Prism 8.0 was used for plotting.

[6] = molecular target: T2, Human CLDN9 (on 293T-CLDN9 cells); assay: flow cytometry on 293T-CLDN9 cells
Protocol: as §2

fold improvement in affinity compared with antibody H1 [1] [fold] | EC50 [2] [nM] | binding result [3] | binding result [4] | binding result [5] | binding result [6] | Binder
~20 | 23 | no binding (tested: 5 µg/mL) | no binding (tested: 5 µg/mL) |  |  | antibody M1 (scFv) (scFv, V domains shown, Tested as a prokaryotically expressed single chain antibody (scFv)) VH: EVQLVQSGAEVKKPGASVKVSCKASGYTFTGYYMNWVRQAPGQGLEWMGEINPATGSTTYNQKFKARVTITRDTSTSTAYMELSSLRSEDTAVYYCARRDYYLGSNSYALDYWGQGTLVTVSS VL: DIQMTQSPSSLSASVGDRVTITCQASQSVSNNLNWYQQKPGKAPKLLIYGASKLEDGVPSRFSGSGSGTDFTFTISSLQPEDFATYYCLQHRYMWTFGQGTKVEIK
~20 | 24.7 | no binding (tested: 5 µg/mL) | no binding (tested: 5 µg/mL) |  |  | antibody M2 (scFv) (scFv, V domains shown, Tested as a prokaryotically expressed single chain antibody (scFv)) VH: EVQLVQSGAEVKKPGASVKVSCKASGYTFTGYYMNWVRQAPGQGLEWMGEINPATGSTTYNQKFKARVTITRDTSTSTAYMELSSLRSEDTAVYYCARRDYYLGSNSYALDYWGQGTLVTVSS VL: DIQMTQSPSSLSASVGDRVTITCQASQSVSNNLNWYQQKPGKAPKLLIYGASKLEDGVPSRFSGSGSGTDFTFTISSLQPEDFATYYCQQHRFMWTFGQGTKVEIK
 | 144 |  |  |  |  | Antibody P2 (scFv) (scFv, Prokaryotically expressed single chain antibody) scFv: EVQLVQSGAEVKKPGASVKVSCKASGYTFTGYYMNWVRQAPGQGLEWMGEINPATGSTTYNQKFKARVTITRDTSTSTAYMELSSLRSEDTAVYYCARRDYYYGSGFYAMDYWGQGTLVTVSSGGGGSGGGGSGGGGSDIQMTQSPSSLSASVGDRVTITCQASQSVSNNLNWYQQKPGKAPKLLIYGASKLEDGVPSRFSGSGSGTDFTFTISSLQPEDFATYYCLQHRYMWTFGQGTKVEIK
 | 475 |  |  | no binding (tested: 10 µg/mL) | no binding (tested: 10 µg/mL) | humanized antibody H1 (scFv-huFc) (Fc fusion, Tested as scFv-huFc; not shown: human Fc (huFc)) scFv: EVQLVQSGAEVKKPGASVKVSCKASGYTFTGYYMNWVRQAPGQGLEWMGEINPATGSTTYNQKFKARVTITRDTSTSTAYMELSSLRSEDTAVYYCARRDYYYGSGFYAMDYWGQGTLVTVSSGGGGSGGGGSGGGGSDIQMTQSPSSLSASVGDRVTITCQASQSVSNNLNWYQQKPGKAPKLLIYGASKLEDGVPSRFSGSGSGTDFTFTISSLQPEDFATYYCLQHRYLWTFGQGTKVEIK
 | 183 |  |  |  |  | Antibody P4 (scFv) (scFv, Prokaryotically expressed single chain antibody) scFv: EVQLVQSGAEVKKPGASVKVSCKASGYTFTGYYMNWVRQAPGQGLEWMGEINPATGSTTYNQKFKARVTITRDTSTSTAYMELSSLRSEDTAVYYCARRDYYYGSGFYAMDYWGQGTLVTVSSGGGGSGGGGSGGGGSDIQMTQSPSSLSASVGDRVTITCQASQSVSNNLNWYQQKPGKAPKLLIYGASKLEDGVPSRFSGSGSGTDFTFTISSLQPEDFATYYCQQHRYMWTFGQGTKVEIK
 | 555 |  |  |  |  | Antibody P3 (scFv) (scFv, Prokaryotically expressed single chain antibody) scFv: EVQLVQSGAEVKKPGASVKVSCKASGYTFTGYYMNWVRQAPGQGLEWMGEINPATGSTTYNQKFKARVTITRDTSTSTAYMELSSLRSEDTAVYYCARRDYYYGSGFYAMDYWGQGTLVTVSSGGGGSGGGGSGGGGSDIQMTQSPSSLSASVGDRVTITCQASQSVSNNLNWYQQKPGKAPKLLIYGASKLEDGVPSRFSGSGSGTDFTFTISSLQPEDFATYYCQQHRFMWTFGQGTKVEIK
 | 62.7 |  |  |  |  | Antibody P1 (scFv) (scFv, Prokaryotically expressed single chain antibody) scFv: EVQLVQSGAEVKKPGASVKVSCKASGYTFTGYYMNWVRQAPGQGLEWMGEINPATGSTTYNQKFKARVTITRDTSTSTAYMELSSLRSEDTAVYYCARRDYYLGSNSYALDYWGQGTLVTVSSGGGGSGGGGSGGGGSDIQMTQSPSSLSASVGDRVTITCQASQSVSNNLNWYQQKPGKAPKLLIYGASKLEDGVPSRFSGSGSGTDFTFTISSLQPEDFATYYCLQHRYLWTFGQGTKVEIK
